Assay results as given in patent publication US20160319032A1 (MEDLMMUNE, published 2016).

Assays:
[1] = target: T1, human αVβ6 integrin on cells (human, UniProt P06756 31-1048; P18564 22-788); test: cell-based or functional assay
[2] = target: T1, human αVβ6 integrin on cells; test: cell-based or functional assay; remark: listed apart in the source
[3] = target: α5β1 integrin on K562 cells (UniProt P08648 42-1049; P05556 21-798); test: cell-based or functional assay
[4] = target: T2, mouse αV on transfected HEK-293 cells (mouse, UniProt P43406 31-1044); test: FACS, purified mAb, transfected HEK-293 (parental: 49)
T2 construct: whole, on cells; Transfected alone into human HEK-293 cells; also called Mouse alpha V
T2 sequence (P43406 31-1044): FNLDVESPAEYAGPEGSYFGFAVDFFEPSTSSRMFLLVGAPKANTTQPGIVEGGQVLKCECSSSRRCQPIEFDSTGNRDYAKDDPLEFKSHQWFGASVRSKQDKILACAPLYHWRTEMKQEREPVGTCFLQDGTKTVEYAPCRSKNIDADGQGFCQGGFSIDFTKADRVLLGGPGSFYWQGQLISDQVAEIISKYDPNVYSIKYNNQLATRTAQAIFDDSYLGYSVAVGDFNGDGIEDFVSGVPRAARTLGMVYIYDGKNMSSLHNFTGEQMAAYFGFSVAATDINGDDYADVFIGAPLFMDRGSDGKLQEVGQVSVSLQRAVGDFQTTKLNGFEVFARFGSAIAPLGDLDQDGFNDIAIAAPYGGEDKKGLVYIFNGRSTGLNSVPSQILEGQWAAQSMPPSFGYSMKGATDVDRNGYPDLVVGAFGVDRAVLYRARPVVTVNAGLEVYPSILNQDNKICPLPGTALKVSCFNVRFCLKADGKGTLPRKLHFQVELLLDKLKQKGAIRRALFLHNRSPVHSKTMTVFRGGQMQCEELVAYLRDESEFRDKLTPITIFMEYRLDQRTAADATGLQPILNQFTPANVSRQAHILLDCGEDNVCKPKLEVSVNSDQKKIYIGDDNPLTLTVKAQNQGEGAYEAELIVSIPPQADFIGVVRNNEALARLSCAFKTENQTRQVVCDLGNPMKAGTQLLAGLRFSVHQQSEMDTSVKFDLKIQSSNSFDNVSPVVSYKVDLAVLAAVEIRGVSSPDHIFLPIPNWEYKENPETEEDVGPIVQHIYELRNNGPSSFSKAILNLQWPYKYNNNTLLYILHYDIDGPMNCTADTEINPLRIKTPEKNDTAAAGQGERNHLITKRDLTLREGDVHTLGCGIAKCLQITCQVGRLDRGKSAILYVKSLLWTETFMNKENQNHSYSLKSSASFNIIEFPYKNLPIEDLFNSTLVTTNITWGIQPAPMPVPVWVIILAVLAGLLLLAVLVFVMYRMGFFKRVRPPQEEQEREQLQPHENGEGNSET

[5] = target: human αV on parental A375M cells (αVβ3 and αVβ5 integrins) (human, UniProt P06756 31-1048); test: cell-based or functional assay
human αV on parental A375M cells (αVβ3 and αVβ5 integrins), sequence (P06756 31-1048 A375M, form in doubt): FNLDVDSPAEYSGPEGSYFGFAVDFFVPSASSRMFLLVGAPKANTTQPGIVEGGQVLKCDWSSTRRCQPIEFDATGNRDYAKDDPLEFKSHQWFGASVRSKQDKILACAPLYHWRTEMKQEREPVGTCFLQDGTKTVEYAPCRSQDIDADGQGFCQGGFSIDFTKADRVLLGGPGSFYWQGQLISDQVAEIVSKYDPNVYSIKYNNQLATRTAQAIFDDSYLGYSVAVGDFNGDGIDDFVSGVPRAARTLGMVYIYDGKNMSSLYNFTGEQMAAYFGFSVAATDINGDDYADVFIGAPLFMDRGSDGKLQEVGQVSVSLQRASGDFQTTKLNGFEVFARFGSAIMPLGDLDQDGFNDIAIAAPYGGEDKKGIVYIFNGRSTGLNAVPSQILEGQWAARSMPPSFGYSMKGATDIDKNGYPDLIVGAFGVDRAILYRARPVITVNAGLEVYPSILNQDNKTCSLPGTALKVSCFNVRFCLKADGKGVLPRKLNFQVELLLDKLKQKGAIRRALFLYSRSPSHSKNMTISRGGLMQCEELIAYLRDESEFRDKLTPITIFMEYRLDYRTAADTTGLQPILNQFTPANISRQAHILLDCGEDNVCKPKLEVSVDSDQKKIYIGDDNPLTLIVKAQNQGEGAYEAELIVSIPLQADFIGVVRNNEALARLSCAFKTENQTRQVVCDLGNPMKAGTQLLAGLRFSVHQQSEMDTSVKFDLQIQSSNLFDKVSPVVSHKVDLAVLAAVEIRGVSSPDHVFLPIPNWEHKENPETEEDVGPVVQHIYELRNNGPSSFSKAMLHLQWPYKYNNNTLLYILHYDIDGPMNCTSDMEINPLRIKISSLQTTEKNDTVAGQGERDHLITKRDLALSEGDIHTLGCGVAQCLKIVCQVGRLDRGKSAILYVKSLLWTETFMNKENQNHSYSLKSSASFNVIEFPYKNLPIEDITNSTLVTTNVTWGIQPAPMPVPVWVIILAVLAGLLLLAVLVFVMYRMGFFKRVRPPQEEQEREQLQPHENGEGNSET

[6] = target: T1, human αVβ6 integrin on cells; test: FMAT, supernatant, HEK 293 cells stably overexpressing αVβ6
[7] = target: T1, human αVβ6 integrin on cells; test: cell-based or functional assay; remark: listed apart in the source
[8] = target: α4β1 integrin on J6.77 cells (UniProt P13612 34-1032; P05556 21-798); test: cell-based or functional assay

T1 sequence (P06756 31-1048, chain 1 of 2): as the sequence (P06756 31-1048 A375M, form in doubt) above, with M345A counted along it
T1 sequence (P18564 22-788, chain 2 of 2): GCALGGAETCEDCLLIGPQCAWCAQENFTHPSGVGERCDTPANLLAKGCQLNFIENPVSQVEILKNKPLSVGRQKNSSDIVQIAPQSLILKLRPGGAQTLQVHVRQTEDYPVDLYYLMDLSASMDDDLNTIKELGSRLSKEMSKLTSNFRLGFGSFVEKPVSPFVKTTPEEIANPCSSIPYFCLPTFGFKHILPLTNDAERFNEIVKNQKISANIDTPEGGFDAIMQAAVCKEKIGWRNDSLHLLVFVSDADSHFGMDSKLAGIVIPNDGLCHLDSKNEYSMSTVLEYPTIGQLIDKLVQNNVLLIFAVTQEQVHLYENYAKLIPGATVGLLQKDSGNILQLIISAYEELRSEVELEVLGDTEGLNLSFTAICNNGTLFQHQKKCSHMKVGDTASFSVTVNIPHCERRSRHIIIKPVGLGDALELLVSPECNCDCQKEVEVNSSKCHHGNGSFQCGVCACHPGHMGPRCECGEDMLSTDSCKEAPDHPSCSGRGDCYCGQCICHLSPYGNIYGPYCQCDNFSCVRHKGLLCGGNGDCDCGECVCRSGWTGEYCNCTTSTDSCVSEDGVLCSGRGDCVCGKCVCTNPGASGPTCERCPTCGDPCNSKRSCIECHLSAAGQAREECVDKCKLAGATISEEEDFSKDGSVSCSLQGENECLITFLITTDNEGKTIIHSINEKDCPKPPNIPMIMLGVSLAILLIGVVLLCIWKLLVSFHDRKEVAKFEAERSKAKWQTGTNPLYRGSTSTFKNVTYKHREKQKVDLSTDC
α5β1 integrin on K562 cells, sequence (P08648 42-1049, chain 1 of 2): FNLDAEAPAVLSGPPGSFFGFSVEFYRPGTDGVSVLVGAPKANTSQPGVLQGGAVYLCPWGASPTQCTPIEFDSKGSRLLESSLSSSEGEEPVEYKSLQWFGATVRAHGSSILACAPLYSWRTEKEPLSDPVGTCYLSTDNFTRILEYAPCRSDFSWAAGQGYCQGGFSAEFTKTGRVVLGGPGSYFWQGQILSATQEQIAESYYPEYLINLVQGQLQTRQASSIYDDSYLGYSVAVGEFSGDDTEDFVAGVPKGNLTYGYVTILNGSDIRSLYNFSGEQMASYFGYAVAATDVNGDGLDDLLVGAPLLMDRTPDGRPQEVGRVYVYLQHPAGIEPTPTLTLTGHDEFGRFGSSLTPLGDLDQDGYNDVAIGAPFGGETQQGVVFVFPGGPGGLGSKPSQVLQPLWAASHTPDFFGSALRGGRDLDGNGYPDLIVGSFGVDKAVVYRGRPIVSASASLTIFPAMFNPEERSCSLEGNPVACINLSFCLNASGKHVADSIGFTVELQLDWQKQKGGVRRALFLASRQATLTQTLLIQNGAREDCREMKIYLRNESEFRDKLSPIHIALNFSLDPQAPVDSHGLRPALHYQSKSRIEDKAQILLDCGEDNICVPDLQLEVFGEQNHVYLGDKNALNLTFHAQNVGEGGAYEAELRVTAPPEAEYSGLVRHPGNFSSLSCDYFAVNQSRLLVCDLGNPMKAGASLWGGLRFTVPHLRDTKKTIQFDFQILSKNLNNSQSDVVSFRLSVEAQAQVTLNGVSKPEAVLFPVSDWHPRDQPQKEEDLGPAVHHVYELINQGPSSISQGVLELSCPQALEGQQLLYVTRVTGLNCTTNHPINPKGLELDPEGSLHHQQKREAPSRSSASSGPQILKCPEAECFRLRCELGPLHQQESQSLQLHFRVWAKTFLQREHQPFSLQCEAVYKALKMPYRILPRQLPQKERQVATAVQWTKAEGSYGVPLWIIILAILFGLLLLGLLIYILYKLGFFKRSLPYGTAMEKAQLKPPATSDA
α5β1 integrin on K562 cells, sequence (P05556 21-798, chain 2 of 2): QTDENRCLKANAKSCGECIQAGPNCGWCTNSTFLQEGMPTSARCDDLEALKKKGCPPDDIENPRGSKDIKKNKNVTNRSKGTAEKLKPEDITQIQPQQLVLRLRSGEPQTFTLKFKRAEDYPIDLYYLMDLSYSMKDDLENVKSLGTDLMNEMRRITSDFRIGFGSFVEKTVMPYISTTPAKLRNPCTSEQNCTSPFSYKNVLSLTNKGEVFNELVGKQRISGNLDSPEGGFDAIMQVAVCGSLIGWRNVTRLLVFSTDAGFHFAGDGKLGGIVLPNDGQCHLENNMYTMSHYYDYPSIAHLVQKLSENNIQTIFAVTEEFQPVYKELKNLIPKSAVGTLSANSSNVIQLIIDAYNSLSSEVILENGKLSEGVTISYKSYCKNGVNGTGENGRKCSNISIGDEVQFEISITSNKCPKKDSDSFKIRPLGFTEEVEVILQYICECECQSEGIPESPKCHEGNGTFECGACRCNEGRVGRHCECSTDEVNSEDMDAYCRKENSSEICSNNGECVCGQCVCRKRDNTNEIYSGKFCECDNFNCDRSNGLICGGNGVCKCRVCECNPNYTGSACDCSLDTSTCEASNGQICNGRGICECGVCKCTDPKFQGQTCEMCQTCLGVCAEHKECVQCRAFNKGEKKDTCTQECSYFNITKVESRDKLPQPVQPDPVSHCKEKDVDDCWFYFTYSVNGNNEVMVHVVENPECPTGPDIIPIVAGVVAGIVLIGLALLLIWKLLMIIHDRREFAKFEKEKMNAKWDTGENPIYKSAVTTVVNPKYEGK

Estimated IC50, adhesion assay, n = 1 [1]: 0.029 µg/mL
Estimated IC50, adhesion assay, n = 2 [1]: 0.025 µg/mL
Estimated IC50, adhesion assay, n = 3 [1]: 0.033 µg/mL
Percent Internalization, 1 ug/mL [2]: 26%
Percent Internalization, 10 ug/mL [2]: 28%
Percent Inhibition of K562 adhesion to FN9-10, 5 ug/ml [3]: 2%
percent of cells shifted [4]: 45%
Percent Inhibition of A375M adhesion to osteopontin peptide, 5 ug/ml [5]: 9%
FMAT FL1XCount [6]: 218000
Assay 1 % Inhibition of adhesion [7]: 98%
Assay 2 % Inhibition of adhesion [7]: 102%
Average % Inhibition of adhesion [7]: 100%
Percent Inhibition of J6.77 adhesion to CS-1 peptide, 5 ug/ml [8]: -7%
B1: sc 298 (antibody, V domains shown)
VH: QVQLVESGGGVVQPGRSLRLSCAASGFTFSSYGMHWVRQAPGKGLEWVAVIWYGGSNKYYADSVKGRFTISRDNSKNTLYLQMNSLRAEDTAVYYCARDLAARRGDYYYYGMDVWGQGTTVTVSS
VL: SSELTQDPVVSVALGQTVRITCQGDSLRSYYLSWYQQKPGQAPVLVIYGKNNRPSGIPDRFSGSNSGNTASLTITGAQAEDEADYYCNSRDSSGNHLFGGGTKLTVL
notes: lambda light chain
